Experimental data: paper PMC6003631

Assays:
[1] = molecular target: human μ receptor-Rluc (human) (UniProt P35372)
rat HA-μ receptor (rat) = rat HA-μ receptor (rat) (UniProt P33535)
UniProt P33535, sequence (P33535 whole entry): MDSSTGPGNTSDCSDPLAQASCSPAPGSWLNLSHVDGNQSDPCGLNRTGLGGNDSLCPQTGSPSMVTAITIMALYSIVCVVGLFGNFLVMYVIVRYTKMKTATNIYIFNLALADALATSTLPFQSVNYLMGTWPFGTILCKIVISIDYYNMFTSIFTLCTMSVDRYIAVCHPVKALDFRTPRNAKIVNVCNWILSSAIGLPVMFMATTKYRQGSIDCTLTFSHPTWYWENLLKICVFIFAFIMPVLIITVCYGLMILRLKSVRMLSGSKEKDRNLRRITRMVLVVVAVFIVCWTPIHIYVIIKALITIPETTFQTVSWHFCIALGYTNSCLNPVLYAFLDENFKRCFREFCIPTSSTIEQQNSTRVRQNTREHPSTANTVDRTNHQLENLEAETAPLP

UniProt P35372, sequence (P35372 whole entry): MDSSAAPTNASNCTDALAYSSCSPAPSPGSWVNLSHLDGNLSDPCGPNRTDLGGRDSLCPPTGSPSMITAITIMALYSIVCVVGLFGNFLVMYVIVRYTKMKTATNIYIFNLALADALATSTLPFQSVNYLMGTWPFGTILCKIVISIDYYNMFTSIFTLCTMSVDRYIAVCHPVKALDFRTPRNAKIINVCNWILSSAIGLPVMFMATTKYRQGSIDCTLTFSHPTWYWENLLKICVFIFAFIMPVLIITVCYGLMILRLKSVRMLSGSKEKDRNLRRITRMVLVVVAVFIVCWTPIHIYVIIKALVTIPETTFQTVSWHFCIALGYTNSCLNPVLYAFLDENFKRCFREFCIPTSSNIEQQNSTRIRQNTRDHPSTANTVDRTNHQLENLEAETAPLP

- arrestin-3 recruitment to the μ receptor (BRET between human μ receptor-Rluc and arrestin-3-GFP) in HEK 293 cells, EC50 [1]: 1200 nM
- Gi activation (decrease of the BRET signal between Gαi1-RlucII and GFP10-Gγ2) in HEK 293 cells expressing rat HA-μ receptors, EC50 (rat HA-μ receptor (rat)): 390 nM
- Gi activation (decrease of the BRET signal between Gαi1-RlucII and GFP10-Gγ2) in HEK 293 cells expressing rat HA-μ receptors, maximum response (BRET ratio) (rat HA-μ receptor (rat)): 12.4 BRET ratio
Substance: D-Ala^2, N-MePhe^4, Gly-ol-enkephalin (peptide)
